Laboratory results published in the supplement of paper PMC7877785.
± gives the uncertainty stated by the source.

Test: self-splicing fitness, log relative to wild type (ln ratio); higher = more splicing; Tetrahymena group I intron in knt gene, E. coli kanamycin selection, DiMSum; sequences stand for … in CUCUCU…GGAGGGAAAAGUUAUCAGGCAUGCACCUGGUAGCUAGUCUUUAAACCAAUAGAUUGCAUCGGUUUAAAAGGCAAGACCGUCAAAUUGCGGGAAAGGGGUCAACAGCCGUUCAGUACCAAGUCUCAGGGGAAACUUUGAGAUGGCCUUGCAAAGGGUAUGGUAAUAAGCUGACGGACAUGGUCCUAACCACGCAGCCAAGUCCUAAGUCAACAGAUCUUCUGUUGAUAUGGAUGCAGUUCACAGACUAAAUGUCGGUCGGGGAAGAUGUAUUCUUCUCAUAAGAUAUAGUCGGACCUCUCCUUAAUGGGAGCUAGCGGAUGAAGUGAUGCAACACUGGAGCCGCUGGGAACUAAUUUGUAUGCGAAAGUAUAUUGAUUAGUUUUGGAGUACUCGUGGUCG
How it was run: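 Colonies from six replicate transformations of E. coli BL21(DE3) were pooled and amplicon-sequenced on an Illumina HiSeq 2500. The library placed an intron with all eight P1ex-region nucleotides randomised inside the knt kanamycin-resistance gene on pET-22b(+), and cells grew overnight at 37°C or 30°C on LB agar with or without 25 μg/mL kanamycin (plus 100 μg/mL carbenicillin, 50 μM IPTG, 0.2% rhamnose). Fitness is the DiMSum error-weighted combination of wild-type-normalised replicate fold changes, kanamycin versus none.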

Row | Sequence | self-splicing fitness (ln) (30 °C) | self-splicing fitness (ln) (37 °C)
1 | AGGGAGCAAUAUUACGAGUU | -4.48 ± 0.46 | -1.45 ± 0.19
2 | AGGGAGCAAUAUUACGAUGA | -3.54 ± 0.37 | -2.7 ± 0.41
3 | AGGGAGCAAUAUUACGAUUG | -3.9 ± 0.17 | -3.41 ± 0.25
4 | AGGGAGCAAUAUUACGCAGC | -2.92 ± 0.47 | –
5 | AGGGAGCAAUAUUACGCAUU | -3.7 ± 0.37 | –
6 | AGGGAGCAAUAUUACGCCAG | -1.99 ± 0.24 | -2.14 ± 0.34
7 | AGGGAGCAAUAUUACGCUAG | -2.36 ± 0.31 | -0.612 ± 0.41
8 | AGGGAGCAAUAUUACGGCGU | -2.04 ± 0.12 | -1.05 ± 0.11
9 | AGGGAGCAAUAUUACGGUCG | -2.2 ± 0.31 | -2.83 ± 0.48
10 | AGGGAGCAAUAUUACGUCCA | -1.11 ± 0.27 | -0.389 ± 0.33
11 | AGGGAGCAAUAUUACGUCGU | -4.4 ± 0.46 | -2.46 ± 0.33
12 | AGGGAGCAAUAUUACGUCUG | – | -1.73 ± 0.36
13 | AGGGAGCAAUAUUACGUUAA | -3.09 ± 0.48 | -2.66 ± 0.41
14 | AGGGAGCAAUAUUACGUUCC | – | -2.63 ± 0.48
15 | AGGUAGCAAUAUUACGAAAC | -3.37 ± 0.035 | -1.85 ± 0.042
16 | AGGUAGCAAUAUUACGACAG | -1.6 ± 0.017 | -0.956 ± 0.034
17 | AGGUAGCAAUAUUACGACCU | -3.04 ± 0.031 | -2.42 ± 0.049
18 | AGGUAGCAAUAUUACGACUA | -0.0242 ± 0.016 | 0.141 ± 0.034
19 | AGGUAGCAAUAUUACGAGCC | -0.991 ± 0.021 | -0.862 ± 0.037
20 | AGGUAGCAAUAUUACGAUAG | -3.728 ± 0.035 | -2.72 ± 0.045
21 | AGGUAGCAAUAUUACGCACA | -0.467 ± 0.017 | 0.0312 ± 0.034
22 | AGGUAGCAAUAUUACGCACG | -0.782 ± 0.016 | -0.31 ± 0.035

Row | Sequence | self-splicing fitness (ln) (30 °C) | self-splicing fitness (ln) (37 °C)
23 | AGGUAGCAAUAUUACGCAUA | -1.71 ± 0.019 | -0.787 ± 0.034
24 | AGGUAGCAAUAUUACGCGUC | -2.763 ± 0.023 | -1.57 ± 0.037
25 | AGGUAGCAAUAUUACGCUCA | -0.609 ± 0.017 | -0.196 ± 0.035
26 | AGGUAGCAAUAUUACGCUUC | -3.52 ± 0.036 | -2.83 ± 0.054
27 | AGGUAGCAAUAUUACGGCUC | -0.672 ± 0.017 | -0.185 ± 0.036
28 | AGGUAGCAAUAUUACGGGCU | -0.801 ± 0.016 | -0.848 ± 0.035
29 | AGGUAGCAAUAUUACGGGGC | -3.748 ± 0.033 | -2.96 ± 0.043
30 | AGGUAGCAAUAUUACGUGGG | -3.908 ± 0.027 | -2.98 ± 0.039
31 | AGGUAGCAAUAUUACGUGUC | -3.313 ± 0.024 | -2.07 ± 0.037
32 | AGGUAGCAAUAUUACGUGUU | -2.894 ± 0.016 | -1.6 ± 0.034
33 | AGGUAGCAAUAUUACGUUUG | -3.578 ± 0.024 | -2.55 ± 0.039
34 | AGUAAGCAAUAUUACGAAGU | -1.75 ± 0.24 | -0.18 ± 0.27
35 | AGUAAGCAAUAUUACGACAU | -0.346 ± 0.013 | -0.078 ± 0.033
36 | AGUAAGCAAUAUUACGACCU | 0.329 ± 0.11 | 0.451 ± 0.14
37 | AGUAAGCAAUAUUACGACGC | -0.403 ± 0.15 | 0.541 ± 0.17
38 | AGUAAGCAAUAUUACGACUC | -1.88 ± 0.13 | -0.797 ± 0.14
39 | AGUAAGCAAUAUUACGAGGG | -3.06 ± 0.18 | -2.87 ± 0.28
40 | AGUAAGCAAUAUUACGAGUC | -2.96 ± 0.23 | -1.45 ± 0.17
41 | AGUAAGCAAUAUUACGAUGG | -3.99 ± 0.23 | -1.56 ± 0.26
42 | AGUAAGCAAUAUUACGGAUG | -3.1 ± 0.25 | -2.2 ± 0.26
43 | AGUAAGCAAUAUUACGGCAC | -2.04 ± 0.27 | -0.545 ± 0.2
